Measured values published in the nanobody polyreactivity screen of Harvey et al. (2022).

Test: yeast display, Sf9 membrane polyspecificity reagent, FACS + sequencing; frameworks hold sequencing errors
In short: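 Galactose induction of a Saccharomyces cerevisiae BJ5465 synthetic nanobody display library ran 36–48 hours. The cells were then stained for 1 hour at 4 °C with 10% biotinylated, detergent-solubilized Sf9 membrane reagent, pulled down on streptavidin microbeads and FACS-sorted into low and high (top ~1%) gates on expression and reagent-binding fluorescence. Labels for polyreactivity follow the gate of origin.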

Sequence | polyreactivity (PSR sort gate)
QVQLVESGGGLVQAGGSLRLSCAASGSTFTTYAMGWYRQAPGKERELVAVITDSGGTYYADSVKGRFTISRDNAKNTVYLQMNSLKPEDTAVYYCNRFFPPTDYEFDSWGQGTQVTVSS | low polyreactivity
QVQLVESGGGLVQAGGSLRLSCAASGFIFRTNAMGWYRQAPGKERELVAAISRSGNTYYADSVKGRFTISRDNAKNTVYLQMNSLKPEDTAVYYCNAGWYGAYRWYRSDYWGQGTQVTVSS | high polyreactivity
QVQLVESGGGLVQAGGSLRLSCAASGSIFVHYDMGWYRPAPGKERELVADIDYSGGSTYYADSVKGRFTISRDNAKNTVYLQMNSLKPEDTAVYYCAAERRRWGLDYYYWGQGTQVTVSS | high polyreactivity
QVQLVESGGGLVQAGGSLSLSCAASGIIFYNYAMGWYRQAPGKERELVAAISSSGGRTYYAESVKGRFTISRDNAKNTVYLQMNSLKPEDTAVYYCAAYVWAYYVPYNYGYWGQGTQVTVSS | high polyreactivity
QVQLVESGRGLVEAGGSLRLSCAASGSTFWAYVMGWSRQAPGKERELVAAITSSGGSTYYADSVKGRFTISRDYAKNTVYLQMNILKPEDTAVYYCAADYFYPYYGAMDYWGQGTQVTVSS | low polyreactivity
QVQLVESGGGLVQAGGSLRISCAASGRTFYWNAMGWYRQAPGKERELVASINGGGSTYYADSVKGRFTISRDNAKNTVYLQMNSLKPEDTAVYYCNAESYEFHRAWGDYDYWGQGTQVTVSS | low polyreactivity
QVQLVESGGGLVQAGGSLRLSCAASGRTFSVYAMGWYRQAPGKERELVAGITSGGSTNYADSVKGRFTISRDNAKNTVYLQMNSLKPEDTAVYYCAAEDDSSTPEFDYWGQGTQVTVSS | low polyreactivity
QVQLVESGGGLVQAGGSLRLSCAASGRTFFWYAMGWYRQAPGKERELVAAITYRGGGTYYADSVKGRFTISRDNAKNTVYLQMNSLKPEDTAVYYCAAEYWVGVYLYDYWGQGTQVTVSS | high polyreactivity
QVQLVESGGGLVQAGGSLPLSCAASGRTFPFNALGWYRQAPGKEREFVAAISVGGGSTYADSVKGRFTISRDNAKNTFYLQMNSLKPEDTAVYYCAAAYTKLYYYWGQGTQVTVSS | low polyreactivity
QVQLVESGGGLVQAGGSLRLSCAASGSIFESYVMGWSRPAPGTEREMVAAISSGGSTYYADSVKGRFTISRDNAKNTVYLQMNSLKPEDTAVYYCAANYDGGYLDYEAGYRLEYDYWGQGTQVTVSS | low polyreactivity
QVQLVESGGGLVQAGGSLRLSCAASGSIFNRYAMGWYRQAPGKERELVAAISTHTGTTYYADSVKGRFTISRDNAKNTVYLQMNSLKPEDTAVYYCAKRSRYGYGKSYDYWGQGTQVTVSS | high polyreactivity
QVKLVESGGGLVHAGGSLRLSCAASGFIFYYYAMGWYRQAPGKERELVAAITSSGGSTYYADSVKGRFTISRDNAKNTVYLQMNSLKPEDTAVYYCNARYVSASRNRGTSRYDYWGQGTQVTVSS | high polyreactivity
QVQLVESGGGLVQAGGSLRLSCAASGSIFWLYTMGWYRQAPGKERELVATITQSGSTYYADSVKGRFTISRDNAKNTVYLQMNSLKPEDTAVYYCAARVVWGPESDYWGQGTQVTVSS | low polyreactivity
QVQLVESGGGLVQAGGSLRLSCAASGRTFGRYALGWYRQAPGKERELVATITSGGSTNYADSVKGRFTISRDNAKNTVYLQMNSLKPEDTAVYYCAAEFSPSRWAYSEGALRYNYWGQGTQVTVSS | low polyreactivity
QVQLVESGGGLVQAGGILRISCAAYGSIFLAYVMGWYRQAPGKERELVAAISYRGGSTYYADSVKGRFTISRDNSKNTVYLQMNSLKPEDTAVYYCAAEHLWGLYNYWGQGTQVTVSS | low polyreactivity
QVQLVESGGGLVQAGGSLRLSCAASGFTLHVYAMGWYRQAPGKERELVAAISTGGNTNYADSVKGRFTISRDNAKNTVYLQMNSLKAEDTAVYYCNARYTSRRSRRPYYEWGQGTQVTVSS | high polyreactivity
QVQLVESGGGLVQAGGSLRLSCAASGRTFFENAMGWYRQAPGKEREFVAAISYNGGSTYYADSVKGRFTISRDNAKNTVYLQMNSLKTEDTAVYYCAADPNYGYDYWGQGTQVTVSS | low polyreactivity
QVQLVESGGGLVQAGGSLRLSSAASGRIFDTNAMGGYRQAPGKERELVAAISKSGGSTYYADSVKGRFTISRDNAKNTVYLQMNSLKPEDTAVYFCAAKYTSGRVLFEHGYWGQGSQVTVSS | low polyreactivity
QVQLVDSGGGLVQAGGSLRLSCAASGLIFGYYDMGWYRQAPGKERELVAAITTGDSTYYADSVKGRFTISRDNAKNTVYLQMTCLKPEDSAVYYCSAYAFWYYESDYWGKGTQVTVSS | low polyreactivity
QVQLVESGGGLVQAGGSLRLSCAASGRTFWYYAMGWYRQAPGKERELVAAISRNGGSTYYEDSVKGRFTISRDNAKNTVYLQMNSLKPEDTAVYYCAADGWYTRKYDYWGQGTQVTVSS | high polyreactivity
QVWLQESGRGLLQACGSLRLSCAASGTISRDIFMGWYRQAPGKEREFVATIAQGGITNYADSVKGRFTISRDNAKNTVYLQMNSVKPGDTAVYFCAARDGNCYWFYYWGQGTQVTVSS | high polyreactivity
